Test results as given in patent publication US20190022211A1 (CELLTRION, published 2019).
Where “and” joins values, the source holds several entries; their conditions need not be identical. Equal values may be shown once.

T1: G protein of rabies virus CVS-11 strain (on virus) (rabies virus CVS-11 strain, UniProt O92284 20-524)
T1 sequence: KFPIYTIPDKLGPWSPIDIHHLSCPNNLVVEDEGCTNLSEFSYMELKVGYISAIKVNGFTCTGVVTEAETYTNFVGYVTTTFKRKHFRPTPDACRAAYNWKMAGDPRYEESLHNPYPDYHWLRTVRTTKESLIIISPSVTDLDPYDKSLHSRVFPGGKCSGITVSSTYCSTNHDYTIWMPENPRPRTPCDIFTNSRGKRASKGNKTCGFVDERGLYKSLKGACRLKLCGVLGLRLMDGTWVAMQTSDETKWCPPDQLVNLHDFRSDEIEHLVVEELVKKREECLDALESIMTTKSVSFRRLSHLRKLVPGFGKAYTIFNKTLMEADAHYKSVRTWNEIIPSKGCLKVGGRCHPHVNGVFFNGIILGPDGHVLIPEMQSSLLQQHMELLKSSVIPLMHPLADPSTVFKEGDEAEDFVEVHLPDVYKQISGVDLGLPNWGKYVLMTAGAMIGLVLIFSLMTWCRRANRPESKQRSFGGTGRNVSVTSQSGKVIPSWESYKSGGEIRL


Experiments:
Test in all cases: cell-based or functional assay
[1] = molecular target: T1, G protein of rabies virus CVS-11 strain …
[2] = molecular target: G protein of rabies virus AL Bat (Bat, California, USA), on virus (rabies virus)
[3] = molecular target: G protein of rabies virus Rv342 China (Cow/dog, China), on virus (rabies virus)
[4] = molecular target: G protein of rabies virus TN-269 (Bat, Tennessee, USA), on virus (rabies virus)
[5] = molecular target: G protein of rabies virus China dog 2005 (Dog, China), on virus (rabies virus)
[6] = molecular target: G protein of rabies virus TN410 (Bat, Tennessee, USA), on virus (rabies virus)
[7] = molecular target: G protein of rabies virus Dog Arg (Dog, Argentina), on virus (rabies virus)
[8] = molecular target: G protein of rabies virus TX SK 4380 (Skunk, Texas, USA), on virus (rabies virus)
[9] = molecular target: G protein of rabies virus TX Coyote (Coyote, Texas, USA), on virus (rabies virus)
[10] = molecular target: G protein of rabies virus Dog thai (Dog, Thailand), on virus (rabies virus)
[11] = molecular target: G protein of EBLV 1 A09-3484 (Genotype 5), on virus (EBLV 1, Genotype 5)
[12] = molecular target: G protein of rabies virus CASK (Skunk, California, USA), on virus (rabies virus)
[13] = molecular target: G protein of rabies virus C1434 (Bat, Alabama, USA), on virus (rabies virus)
[14] = molecular target: G protein of rabies virus VA 399 (Bat, Virginia, USA), on virus (rabies virus)
[15] = molecular target: G protein of rabies virus LC NY (Bat, New York, USA), on virus (rabies virus)
[16] = molecular target: G protein of rabies virus 857r (Raccoon dog, Russia, Far East), on virus (rabies virus)
[17] = molecular target: G protein of rabies virus MI1625 (Bat, Tennessee, USA), on virus (rabies virus)
[18] = molecular target: G protein of rabies virus Phi 002 (231) (Human/dog, Philippines), on virus (rabies virus)
[19] = molecular target: G protein of rabies virus WA Bat (Bat, Washington, USA), on virus (rabies virus)

| Binder | neutralizing activity (RFFIT) [1] | neutralizing activity (RFFIT), Titer [1] | neutralizing activity (RFFIT) [2] | neutralizing activity (RFFIT), Titer [2] | neutralizing activity (RFFIT) [3] | neutralizing activity (RFFIT), Titer [3] | neutralizing activity (RFFIT) [4] | neutralizing activity (RFFIT), Titer [4] | neutralizing activity (RFFIT) [5] | neutralizing activity (RFFIT), Titer [5] | neutralizing activity (RFFIT) [6] | neutralizing activity (RFFIT), Titer [6] | neutralizing activity (RFFIT) [7] | neutralizing activity (RFFIT), Titer [7] | neutralizing activity (RFFIT) [8] | neutralizing activity (RFFIT), Titer [8] | neutralizing activity (RFFIT) [9] | neutralizing activity (RFFIT), Titer [9] | neutralizing activity (RFFIT) [10] | neutralizing activity (RFFIT), Titer [10] | also measured |
| --- | --- | --- | --- | --- | --- | --- | --- | --- | --- | --- | --- | --- | --- | --- | --- | --- | --- | --- | --- | --- | --- |
| antibody 2 (antibody, V domains shown) VH: EVQLVESGAEVKKPGASVKVSCKASGYTFTSYDISWVRQAPGQGLEWMGWISTYKGNTNFAQKFQDRVTLTTDTSTTTAYMELRSLTSDDTAVYYCARAKSHPFYDFWSAYYVPGAFDIWGQGTVVTVSS VL: not shown | 1.47 IU/mL and 7350 IU/mg | 250 | 7.6 IU/mL and 7590 IU/mg | 1100 | 2.4 IU/mL and 11800 IU/mg | 1300 | 3.12 IU/mL and 15600 IU/mg | 390 | 0.46 IU/mL and 2320 IU/mg | 13 | 5.33 IU/mL and 26700 IU/mg | 200 | 0.43 IU/mL and 2120 IU/mg | 170 | 0.56 IU/mL and 2800 IU/mg | 70 | 1 IU/mL and 5000 IU/mg | 170 | 9.3 IU/mL and 9290 IU/mg | 1300 | neutralizing activity (RFFIT) [11]: 5.4 IU/mL and 27000 IU/mg; neutralizing activity (RFFIT), Titer [11]: 540; neutralizing activity (RFFIT) [12]: 0.43 IU/mL and 2160 IU/mg; neutralizing activity (RFFIT), Titer [12]: 54; neutralizing activity (RFFIT) [13]: 0.96 IU/mL and 4800 IU/mg; neutralizing activity (RFFIT), Titer [13]: 36; neutralizing activity (RFFIT) [14]: 2.78 IU/mL and 13900 IU/mg; neutralizing activity (RFFIT), Titer [14]: 50; neutralizing activity (RFFIT) [15]: 2.14 IU/mL and 10700 IU/mg; neutralizing activity (RFFIT), Titer [15]: 45; neutralizing activity (RFFIT) [16]: 2.7 IU/mL and 2700 IU/mg; neutralizing activity (RFFIT), Titer [16]: 54; neutralizing activity (RFFIT) [17]: 2.5 IU/mL and 12500 IU/mg; neutralizing activity (RFFIT), Titer [17]: 70; neutralizing activity (RFFIT) [18]: 2.5 IU/mL and 2500 IU/mg; neutralizing activity (RFFIT), Titer [18]: 250; neutralizing activity (RFFIT) [19]: 2 IU/mL and 2000 IU/mg; neutralizing activity (RFFIT), Titer [19]: 250 |
| antibody 1 (antibody, V domains shown) VH: VQLLQESGPGLAKPSETLSLICTVSGGSISRRRDYWGWIRQPPGRGLEWIGSFFHRGSTYYNPSLESRVSISVDPSKNQFSLHLSSVTVADTAVYYCARHPSTPFAEYLLLPDAFDSWGQGTLVTVSS VL: DIVMTQSPATLSVSPGERATLSCRASQSVRSSLAWYQQRPGQAPRLLISGASTRATDIPARLSGSGSGTEFTLTVSSLQSEDFAVYYCQQYSDWPLTFGGGTKVEIKR | 0.41 IU/mL and 2060 IU/mg | 70 | 7.6 IU/mL and 7590 IU/mg | 1100 | 0.5 IU/mL and 2540 IU/mg | 280 | 1.16 IU/mL and 5800 IU/mg | 145 | 0.43 IU/mL and 2140 IU/mg | 12 | 0.51 IU/mL and 2530 IU/mg | 19 | 0.36 IU/mL and 1810 IU/mg | 145 | 0.4 IU/mL and 2000 IU/mg | 50 | 0.33 IU/mL and 1650 IU/mg | 56 | 2.3 IU/mL and 2290 IU/mg | 320 | neutralizing activity (RFFIT) [11]: 0.56 IU/mL and 2800 IU/mg; neutralizing activity (RFFIT), Titer [11]: 56; neutralizing activity (RFFIT) [12]: 0.4 IU/mL and 2000 IU/mg; neutralizing activity (RFFIT), Titer [12]: 50; neutralizing activity (RFFIT) [13]: 0.51 IU/mL and 2530 IU/mg; neutralizing activity (RFFIT), Titer [13]: 19; neutralizing activity (RFFIT) [14]: 0.56 IU/mL and 2780 IU/mg; neutralizing activity (RFFIT), Titer [14]: 10; neutralizing activity (RFFIT) [15]: 0.52 IU/mL and 2620 IU/mg; neutralizing activity (RFFIT), Titer [15]: 11; neutralizing activity (RFFIT) [16]: 2.8 IU/mL and 2800 IU/mg; neutralizing activity (RFFIT), Titer [16]: 56; neutralizing activity (RFFIT) [17]: 0.39 IU/mL and 1960 IU/mg; neutralizing activity (RFFIT), Titer [17]: 11; neutralizing activity (RFFIT) [18]: 2.5 IU/mL and 2500 IU/mg; neutralizing activity (RFFIT), Titer [18]: 250; neutralizing activity (RFFIT) [19]: 2.2 IU/mL and 2160 IU/mg; neutralizing activity (RFFIT), Titer [19]: 270 |
